A short description of the data set: amyloid nucleation score (Sup35N fusion, yeast selection) (log enrichment); library NNK3; higher = more nucleation; inactive = no reads after selection. A digest of the protocol: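 The nucleation score is a DiMSum log enrichment of output over input reads, centred on the mode score of non-aggregating sequences. Sequences under 100 input reads were excluded, and reads came from Illumina sequencing of plasmid inserts. Psi-negative yeast expressing Sup35N fused to peptides of 20 random codons were induced with 100 μM copper sulfate for 24 hours and grown 7 days at 30°C on medium lacking adenine and uracil. Random libraries had three technical output replicates.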

± gives the uncertainty stated by the source.

Regarding NWLDWYYPYLKMVIATGFND, the amyloid nucleation score result was “inactive”.

With RDMFIYKTCMKVCVQLPYII, the amyloid nucleation score result is “inactive”.

Regarding STVELWQELFAFNTRGGSNG, the amyloid nucleation score result is “inactive”.

For the substance IMKKESVAHHVNIGIHASLT, the amyloid nucleation score is -0.101 ± 1.1.

For the substance MIDRRMSFRQGDHKDCPTAH, the amyloid nucleation score result was “inactive”.

For the substance KRLHTS, the amyloid nucleation score entry is “inactive”.

Take TFSYGSFLRSYLLMC: the amyloid nucleation score entry is “inactive”.

As to VPFVGLLSLALAFYSIKNSN, the amyloid nucleation score is 0.921 ± 0.23.

Turning to FCRLWVRVSSDTFYYSFSGN, the amyloid nucleation score came out at 0.537 ± 0.47.

FELTVLSSMVAIFL yielded an amyloid nucleation score of 1.61 ± 0.089.

In the case of VLSHSHGSWSRESYKLLRLD, the amyloid nucleation score entry was “inactive”.

In the case of VSGSKWQLREGVAKYMMCRY, the amyloid nucleation score result was “inactive”.

RVKYL: the amyloid nucleation score entry is “inactive”.

For the substance WVCTYLTRFGRITGALRMDV, the amyloid nucleation score entry is “inactive”.

Regarding QLYSHNRYTLGYTMLSRFVS, the amyloid nucleation score result was “inactive”.

In the case of VPNSRIVTREGCWESACGIR, the amyloid nucleation score result is “inactive”.

Consider TRHIGVGRY, for which the amyloid nucleation score result was “inactive”.

On to SNPVFFVMLAPLWVAQLSNP, for which the amyloid nucleation score result was “inactive”.

The substance LTKCPCRLLCRLRSRARRMG came in with an amyloid nucleation score of -0.328 ± 0.98.

Turning to RQGPIYPWVLC, the amyloid nucleation score result was “inactive”.

As to LCVFKWLILREYISITHDSI, the amyloid nucleation score entry is “inactive”.

CFAYCFLSLFEMRIWTN displayed an amyloid nucleation score of -0.074 ± 0.64.

Substance ELFSVNKCDLALNTCLTVPG came in with an amyloid nucleation score of 2.6 ± 0.061.

For the substance VGWNQDGDHMKSLKVAWARW, the amyloid nucleation score result was “inactive”.

For TCSVTEMVTL, the amyloid nucleation score result was “inactive”.

RKSGYFP: the amyloid nucleation score result was “inactive”.

As for SCEDLWNNMIAWMFATSRR, the amyloid nucleation score was 1.26 ± 0.1.

Turning to HFAYRFCYLANRRRDVYRSA, the amyloid nucleation score entry is “inactive”.

As to FDFTGYLKCLKCTSSCTMVL, the amyloid nucleation score result was “inactive”.

As for GPFARNS, the amyloid nucleation score entry is “inactive”.

Consider DDFVG, for which the amyloid nucleation score result was “inactive”.

On to KWNHYWDIVFCTSYFNSTFM, for which the amyloid nucleation score turned out to be 2.29 ± 0.066.

In the case of TYTSESWVHLVKYGSLNELE, the amyloid nucleation score result was “inactive”.

For the substance VVLAMTHSYRNFKMFRDHYH, the amyloid nucleation score was 0.957 ± 0.12.

For MSADSCCSSCLVSTGTRVTF, the amyloid nucleation score result is “inactive”.

Take FGANHKQVSWWDRMLSGTVR: the amyloid nucleation score result was “inactive”.

Turning to KSERLNLVGILVSLVRPVCL, the amyloid nucleation score entry is “inactive”.

Take EWISLQVKNLTVSTVMLCLE: the amyloid nucleation score entry is “inactive”.

For DCGVVCSRNRNAEEEMLDSV, the amyloid nucleation score entry is “inactive”.

For the substance GLLVTTPMLKLNYFNVLDLG, the amyloid nucleation score worked out at 0.99 ± 0.1.

VWSFGLLVS returned an amyloid nucleation score of -0.17 ± 1.1.

For the substance TDWYVIF, the amyloid nucleation score entry is “inactive”.

As for TIPYFQYDVFHKEDNWTGML, the amyloid nucleation score result was “inactive”.

Consider AKSKSIRERLVVFEASQTRY, for which the amyloid nucleation score result was “inactive”.

KYYTSRNRWRYMV had an amyloid nucleation score of -0.291 ± 0.68.

Consider YNYLV, for which the amyloid nucleation score result was “inactive”.

Consider RNLKN, for which the amyloid nucleation score result is “inactive”.

Consider FDSKVWSAQRVRSTRLLSLG, for which the amyloid nucleation score entry is “inactive”.

Substance VDLRSLSPGYIDFTVISPLL displayed an amyloid nucleation score of -0.952 ± 0.83.

Turning to NVNVNAFKMSLELRAR, the amyloid nucleation score result was “inactive”.

For RYLWVLNRIGPVWCSGFRVW, the amyloid nucleation score entry is “inactive”.

For the substance SDRFHVAHNNFLMRGKGFRT, the amyloid nucleation score result was “inactive”.

On to ILADSCGV, for which the amyloid nucleation score result is “inactive”.

Turning to GSGYVTGGSSLLRARWSRGG, the amyloid nucleation score came out at 1.26 ± 0.17.

In the case of GYILVLYADRAKICDKFYVG, the amyloid nucleation score is 2.27 ± 0.05.

For the substance WSTLKMVRVCYGASFSNVYM, the amyloid nucleation score result is “inactive”.

Regarding RDTGPPMFWREAVSRYR, the amyloid nucleation score entry was “inactive”.

Turning to GVEIRYLQQ, the amyloid nucleation score entry is “inactive”.

For the substance TRILGYIFGAVSIVWLGVER, the amyloid nucleation score entry was “inactive”.

Take SFSMIRE: the amyloid nucleation score entry was “inactive”.

For AMNNLLFTLYVF, the amyloid nucleation score result is “inactive”.

On to TRFTACGYRKSCYWWIVF, for which the amyloid nucleation score result is “inactive”.

Substance LRCKKRLVRFLHVHEFAVEY gave an amyloid nucleation score of -0.211 ± 0.52.

Take FDTWFLRFRTNDVYLKVFFY: the amyloid nucleation score result is “inactive”.

Consider QRLCCPRNL, for which the amyloid nucleation score entry is “inactive”.

For the substance MPRESLDLSTWVLVEEFIYI, the amyloid nucleation score entry is “inactive”.

As for INMRFIQKRMFVYLNYSWYA, the amyloid nucleation score entry is “inactive”.

For IYRLDSSTSCICHCFLILVF, the amyloid nucleation score result was “inactive”.

As for YMTGNSSSWSTFGWDKRFGI, the amyloid nucleation score was 1.03 ± 0.09.

Consider RRLCRYCDVILRNFMHKIQW, for which the amyloid nucleation score entry is “inactive”.

Take ARWVWDIKETVTLV: the amyloid nucleation score result is “inactive”.

Take YYSWCRFTNDYSCCYRAFFA: the amyloid nucleation score result is “inactive”.

GHFLISIKKLL: the amyloid nucleation score entry was “inactive”.

Regarding DHWLLQYERRCKLGGFGY, the amyloid nucleation score entry was “inactive”.

Turning to HRTCITTNDDCLSRGTLP, the amyloid nucleation score entry was “inactive”.

As for ISKWESKSSSGLDFL, the amyloid nucleation score entry was “inactive”.

For KGITYLNVRFKNRCPMVFGG, the amyloid nucleation score entry is “inactive”.

As to ECAYWMILLGLDYNGHPNRP, the amyloid nucleation score result was “inactive”.

On to ASGLDIISSSNKLH, for which the amyloid nucleation score entry was “inactive”.

Turning to TKCNDYFNVSRYSSLDS, the amyloid nucleation score result was “inactive”.

On to SLATSYVNFILCRLLKFDHT, for which the amyloid nucleation score result was “inactive”.

Take MWRPSHTYCLSNGKVECREC: the amyloid nucleation score entry was “inactive”.

PIFFMIVYAVATYCKEGSHS: the amyloid nucleation score entry was “inactive”.

Turning to SWDHTVNKLGTPTVGSGSND, the amyloid nucleation score result is “inactive”.

On to YIYICLVFMSRCTKLYIELG, for which the amyloid nucleation score result was “inactive”.

As to SILLDMSDQFPALGFSLFII, the amyloid nucleation score entry is “inactive”.

For the substance YGCWQRWSRQVGYFRGDKAC, the amyloid nucleation score entry is “inactive”.

In the case of YSCNKCVDEMRVRRGIERGV, the amyloid nucleation score entry is “inactive”.

As for CSPSFDVYPMV, the amyloid nucleation score result is “inactive”.

For the substance DLTTFQDMSTCTLWVTSGYT, the amyloid nucleation score result is “inactive”.

For VLGPDGRVKYVAKDSNIMVI, the amyloid nucleation score entry is “inactive”.

On to YTILVCYSAGVAYYNKGLVR, for which the amyloid nucleation score entry was “inactive”.

AACYINMCIGIVYGYSFLSF gave an amyloid nucleation score of 1.13 ± 0.087.

For NGVLSSA, the amyloid nucleation score entry was “inactive”.

As to SDFFTLSS, the amyloid nucleation score entry was “inactive”.

On to ERSQKWVNF, for which the amyloid nucleation score entry was “inactive”.

Substance CVICSELLSSDCIIGDHRLR displayed an amyloid nucleation score of 1.7 ± 0.1.

Regarding SNDVCVC, the amyloid nucleation score result is “inactive”.

Regarding SPRTNNPTMHRSGW, the amyloid nucleation score entry was “inactive”.

Consider CSCQMSRFMRTLVCVFT, for which the amyloid nucleation score entry was “inactive”.

As to WRVFVIRYKKSMYAETGKVK, the amyloid nucleation score entry was “inactive”.

For YIHIY, the amyloid nucleation score result was “inactive”.

Turning to RVFIDRDRP, the amyloid nucleation score result was “inactive”.

As for DFYIIDSLIRMCMRICEFVL, the amyloid nucleation score result was “inactive”.

For CAESIRHRRP, the amyloid nucleation score result was “inactive”.

CQSKLKLSMLCRWFRCTIGK: the amyloid nucleation score result is “inactive”.

LSLATTSTLTLPMWKGTRLN displayed an amyloid nucleation score of 0.744 ± 0.2.

Consider HLGKRNEKNTVLARLNFGQ, for which the amyloid nucleation score entry is “inactive”.

Take LSVVTSTHEDASSLNTTRWM: the amyloid nucleation score entry was “inactive”.

ECRYRTRR: the amyloid nucleation score result is “inactive”.

MMRWIDVGYLVDLYSLRISG: the amyloid nucleation score result was “inactive”.

In the case of CFVVNCHYFDFMDV, the amyloid nucleation score was 2.51 ± 0.06.

The substance HVVFLSSMVATTLLWFG displayed an amyloid nucleation score of 1.26 ± 0.12.

As to WCAISICQLLKRQWYLGSYV, the amyloid nucleation score entry is “inactive”.

As to TLSCSDFTVLGTCDAVEGIN, the amyloid nucleation score entry was “inactive”.

For ENERGKKMSLGYGLELAGTG, the amyloid nucleation score entry is “inactive”.

With PGIPGPQLIYRDTILTLECM, the amyloid nucleation score came out at 0.03 ± 0.88.

Regarding ITCLNLINGGYHP, the amyloid nucleation score is -0.066 ± 0.3.

Turning to RSLHWNLGLCIWYNEFRDLM, the amyloid nucleation score turned out to be 1.8 ± 0.074.

Take PVDIDPLGSFVD: the amyloid nucleation score result is “inactive”.

The substance EHRLVDCDVWVR returned an amyloid nucleation score of 2.82 ± 0.077.

Consider ARRGLPVARIIFSHDPNL, for which the amyloid nucleation score entry is “inactive”.

Regarding KCWPIVCNLWNREWQCSLIR, the amyloid nucleation score result was “inactive”.

Regarding YMLLSVDILSYMPMTVVAEQ, the amyloid nucleation score result is “inactive”.

The substance DGCGFIVTFVSAGVRSWLGI had an amyloid nucleation score of 0.712 ± 0.29.

Substance PTGMPYNLTWFFWHATMPLL registered an amyloid nucleation score of -0.255 ± 0.33.

Take TYYTSRYL: the amyloid nucleation score result is “inactive”.

Regarding ENSEW, the amyloid nucleation score result was “inactive”.

In the case of HSVASDYRTAFLLSHT, the amyloid nucleation score was 1.39 ± 0.089.

With FWNRWVVQVDSLSMRMSRVA, the amyloid nucleation score result was “inactive”.

SSTMLTNIWHHPNHGVVWDR: the amyloid nucleation score entry is “inactive”.

Source of the values: the supplement of paper PMC12042874.
